Laboratory results from patent US20210147504A1 (Bayer, published 2021).
“And” between values parts separate entries of the source, which are not always exact repeats. Equal entries are not always repeated. Values belong to the binder of their own block, whether it stands above or below them.

Experiments:
Assay in all cases: cell-based or functional assay
human NPRA [1] = target: T1, human NPRA (human, UniProt P16066 33-1061)
T1 sequence (looked up): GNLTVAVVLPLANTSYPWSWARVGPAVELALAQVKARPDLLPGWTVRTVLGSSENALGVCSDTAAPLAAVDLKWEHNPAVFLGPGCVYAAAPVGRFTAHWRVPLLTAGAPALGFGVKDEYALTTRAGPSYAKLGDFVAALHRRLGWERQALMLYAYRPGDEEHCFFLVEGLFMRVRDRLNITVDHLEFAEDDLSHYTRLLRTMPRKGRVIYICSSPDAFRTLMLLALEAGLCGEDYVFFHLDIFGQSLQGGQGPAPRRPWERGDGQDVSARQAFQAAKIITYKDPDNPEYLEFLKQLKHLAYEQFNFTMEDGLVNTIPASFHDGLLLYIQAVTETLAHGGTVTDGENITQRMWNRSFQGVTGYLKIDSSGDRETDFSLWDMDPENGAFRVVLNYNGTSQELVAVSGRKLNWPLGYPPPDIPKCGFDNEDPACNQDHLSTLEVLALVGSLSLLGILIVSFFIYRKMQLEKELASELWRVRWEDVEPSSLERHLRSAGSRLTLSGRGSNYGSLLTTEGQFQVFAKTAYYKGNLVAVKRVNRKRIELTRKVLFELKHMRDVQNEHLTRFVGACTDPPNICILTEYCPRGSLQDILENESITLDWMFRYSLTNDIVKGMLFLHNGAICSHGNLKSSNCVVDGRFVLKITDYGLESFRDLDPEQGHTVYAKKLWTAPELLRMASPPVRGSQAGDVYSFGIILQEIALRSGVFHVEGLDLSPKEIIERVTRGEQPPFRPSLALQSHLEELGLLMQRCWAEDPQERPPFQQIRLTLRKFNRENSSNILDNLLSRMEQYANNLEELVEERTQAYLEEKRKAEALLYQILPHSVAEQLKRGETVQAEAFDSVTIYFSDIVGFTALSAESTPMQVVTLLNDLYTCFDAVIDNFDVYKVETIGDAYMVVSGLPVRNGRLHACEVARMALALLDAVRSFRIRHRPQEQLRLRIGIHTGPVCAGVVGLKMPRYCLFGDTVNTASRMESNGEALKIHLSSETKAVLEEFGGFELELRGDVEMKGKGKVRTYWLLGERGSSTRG

rat ANP receptor (NPR-A) = target: T2, rat ANP receptor (NPR-A) (rat, UniProt P18910 29-1057)
T2 sequence (looked up): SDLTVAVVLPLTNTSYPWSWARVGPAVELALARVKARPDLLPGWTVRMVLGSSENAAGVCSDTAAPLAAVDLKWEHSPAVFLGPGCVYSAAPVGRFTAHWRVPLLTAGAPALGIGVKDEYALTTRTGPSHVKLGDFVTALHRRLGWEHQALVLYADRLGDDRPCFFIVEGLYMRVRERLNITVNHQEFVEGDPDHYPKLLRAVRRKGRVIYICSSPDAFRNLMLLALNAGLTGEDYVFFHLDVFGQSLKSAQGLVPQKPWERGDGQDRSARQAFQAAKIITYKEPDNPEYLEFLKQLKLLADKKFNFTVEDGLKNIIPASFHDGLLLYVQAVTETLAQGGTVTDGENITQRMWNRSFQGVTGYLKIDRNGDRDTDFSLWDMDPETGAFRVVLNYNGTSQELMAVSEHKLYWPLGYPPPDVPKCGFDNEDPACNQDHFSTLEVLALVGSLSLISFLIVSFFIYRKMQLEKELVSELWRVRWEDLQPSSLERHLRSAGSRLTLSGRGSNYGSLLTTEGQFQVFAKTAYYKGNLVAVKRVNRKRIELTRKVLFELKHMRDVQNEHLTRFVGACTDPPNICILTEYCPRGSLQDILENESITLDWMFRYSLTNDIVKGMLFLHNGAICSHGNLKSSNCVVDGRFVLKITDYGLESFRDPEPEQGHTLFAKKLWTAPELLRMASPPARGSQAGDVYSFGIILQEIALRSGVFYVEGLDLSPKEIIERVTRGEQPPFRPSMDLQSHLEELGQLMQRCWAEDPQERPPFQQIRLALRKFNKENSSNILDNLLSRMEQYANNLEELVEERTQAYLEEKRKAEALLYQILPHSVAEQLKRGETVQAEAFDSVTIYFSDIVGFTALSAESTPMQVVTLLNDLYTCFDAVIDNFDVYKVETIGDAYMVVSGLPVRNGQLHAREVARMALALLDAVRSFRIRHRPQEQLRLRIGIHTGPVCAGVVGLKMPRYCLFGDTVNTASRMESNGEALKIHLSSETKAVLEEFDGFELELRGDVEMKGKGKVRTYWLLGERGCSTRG

human NPRA [2] = target: T3, human NPRA (human, UniProt P16066 33-1061); remark: listed apart in the source
T3 sequence (looked up): T1 sequence (looked up)

B1: TPP-10361 (antibody, human IgG1, lambda)
heavy: not shown
light: QSVLTQPPSVSGAPGQRVTISCTGSSSNIGAGYDVHWYQQLPGTAPKLLIYGSGSGSGSGSGSPDGGSGGSLRRSSCFGGRMDRIGAQSGLGCNSFRYGSYGSGGSGSGSGNRPSGVPDRFSGSKSGTSASLAITGLQAEDEADYYCQSYDSSLSGVVFGGGTKLTVLGQPKAAPSVTLFPPSSEELQANKATLVCLISDFYPGAVTVAWKADSSPVKAGVETTTPSKQSNNKYAASSYLSLTPEQWKSHRSYSCQVTHEGSTVEKTVAPTECS
activity rcs (human NPRA [1]): 20%
average rel logEC50 (human NPRA [1]): -0.1 log vs TPP-5661
rel. activity rcs (human NPRA [1]): -0.1 log vs TPP-5661
rel. logEC50 pcs 5 (human NPRA [1]): -0.1 log vs TPP-5661

B3: TPP-10765 (antibody, human IgG1, lambda)
heavy: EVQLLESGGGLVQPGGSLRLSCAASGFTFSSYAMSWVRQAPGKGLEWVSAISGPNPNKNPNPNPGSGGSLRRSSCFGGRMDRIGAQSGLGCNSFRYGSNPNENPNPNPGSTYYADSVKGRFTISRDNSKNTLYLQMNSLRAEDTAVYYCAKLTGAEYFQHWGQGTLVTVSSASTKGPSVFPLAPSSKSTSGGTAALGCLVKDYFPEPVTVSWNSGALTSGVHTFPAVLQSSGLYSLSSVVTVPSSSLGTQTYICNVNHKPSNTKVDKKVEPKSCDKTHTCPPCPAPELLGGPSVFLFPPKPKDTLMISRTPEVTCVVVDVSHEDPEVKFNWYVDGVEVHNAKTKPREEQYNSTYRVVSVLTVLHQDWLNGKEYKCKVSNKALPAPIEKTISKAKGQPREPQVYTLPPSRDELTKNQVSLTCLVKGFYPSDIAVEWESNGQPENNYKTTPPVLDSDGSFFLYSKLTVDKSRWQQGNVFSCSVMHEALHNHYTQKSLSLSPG
light: QSVLTQPPSVSGAPGQRVTISCTGSSSNIGAGYDVHWYQQLPGTAPKLLIYGNSNRPSGVPDRFSGSKSGTSASLAITGLQAEDEADYYCQSYDSSLSGVVFGGGTKLTVLGQPKAAPSVTLFPPSSEELQANKATLVCLISDFYPGAVTVAWKADSSPVKAGVETTTPSKQSNNKYAASSYLSLTPEQWKSHRSYSCQVTHEGSTVEKTVAPTECS
activity rcs (human NPRA [2]): 72%
average rel logEC50 (human NPRA [2]): -0.4 log vs TPP-5661
rel. activity rcs (human NPRA [2]): -0.9 log vs TPP-5661
rel. logEC50 pcs 5 (human NPRA [2]): -0.9 log vs TPP-5661
rel. logEC50 pcs 6 (human NPRA [2]): -0.4 log vs TPP-5661
rel. logEC50 pcs 7 (human NPRA [2]): 0.2 log vs TPP-5661

B4: TPP-10283 (antibody, human IgG1, lambda)
heavy: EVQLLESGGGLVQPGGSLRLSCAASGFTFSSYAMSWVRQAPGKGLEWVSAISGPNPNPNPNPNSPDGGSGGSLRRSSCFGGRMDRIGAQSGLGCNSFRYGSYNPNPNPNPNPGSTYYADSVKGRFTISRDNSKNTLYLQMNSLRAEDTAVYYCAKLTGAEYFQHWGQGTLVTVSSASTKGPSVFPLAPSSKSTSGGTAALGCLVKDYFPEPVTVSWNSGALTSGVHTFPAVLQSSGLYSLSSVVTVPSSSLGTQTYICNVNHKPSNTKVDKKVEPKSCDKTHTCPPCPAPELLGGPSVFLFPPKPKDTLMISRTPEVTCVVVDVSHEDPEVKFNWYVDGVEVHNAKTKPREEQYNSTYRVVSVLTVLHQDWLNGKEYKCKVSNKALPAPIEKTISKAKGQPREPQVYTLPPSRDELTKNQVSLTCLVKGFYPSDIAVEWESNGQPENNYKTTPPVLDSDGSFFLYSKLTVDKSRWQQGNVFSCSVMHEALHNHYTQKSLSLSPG
light: B3 light
activity rcs (human NPRA [2]): 83%
average rel logEC50 (human NPRA [2]): -0.8 log vs TPP-5661
rel. activity rcs (human NPRA [2]): -0.8 log vs TPP-5661
rel. logEC50 pcs 5 (human NPRA [2]): -0.8 log vs TPP-5661

B5: TPP-10294 (antibody, human IgG1, lambda)
heavy: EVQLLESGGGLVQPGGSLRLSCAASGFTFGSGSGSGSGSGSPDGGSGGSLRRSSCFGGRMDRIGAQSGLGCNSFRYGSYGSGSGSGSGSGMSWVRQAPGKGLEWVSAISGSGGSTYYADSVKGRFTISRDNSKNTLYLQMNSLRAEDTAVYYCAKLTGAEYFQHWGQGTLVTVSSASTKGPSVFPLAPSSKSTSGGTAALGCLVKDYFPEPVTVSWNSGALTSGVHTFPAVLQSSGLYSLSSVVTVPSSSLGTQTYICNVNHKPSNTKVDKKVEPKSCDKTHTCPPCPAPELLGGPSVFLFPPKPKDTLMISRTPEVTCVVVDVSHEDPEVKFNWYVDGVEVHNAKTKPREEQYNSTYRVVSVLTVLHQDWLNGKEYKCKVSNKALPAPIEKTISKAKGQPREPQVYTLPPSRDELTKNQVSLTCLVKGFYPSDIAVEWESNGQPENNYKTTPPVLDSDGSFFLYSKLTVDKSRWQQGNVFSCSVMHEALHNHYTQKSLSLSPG
light: B3 light
activity rcs (human NPRA [2]): 41%
average rel logEC50 (human NPRA [2]): -0.3 log vs TPP-5661
rel. logEC50* pcs (human NPRA [2]): -0.5 log vs TPP-5661 and -0.6 log vs TPP-5661 and -0.4 log vs TPP-5661
rel. logEC50 pcs 4 (human NPRA [2]): -0.2 log vs TPP-5661
rel. logEC50 pcs 7 (human NPRA [2]): 0 log vs TPP-5661

B6: TPP-10282 (antibody, human IgG1, lambda)
heavy: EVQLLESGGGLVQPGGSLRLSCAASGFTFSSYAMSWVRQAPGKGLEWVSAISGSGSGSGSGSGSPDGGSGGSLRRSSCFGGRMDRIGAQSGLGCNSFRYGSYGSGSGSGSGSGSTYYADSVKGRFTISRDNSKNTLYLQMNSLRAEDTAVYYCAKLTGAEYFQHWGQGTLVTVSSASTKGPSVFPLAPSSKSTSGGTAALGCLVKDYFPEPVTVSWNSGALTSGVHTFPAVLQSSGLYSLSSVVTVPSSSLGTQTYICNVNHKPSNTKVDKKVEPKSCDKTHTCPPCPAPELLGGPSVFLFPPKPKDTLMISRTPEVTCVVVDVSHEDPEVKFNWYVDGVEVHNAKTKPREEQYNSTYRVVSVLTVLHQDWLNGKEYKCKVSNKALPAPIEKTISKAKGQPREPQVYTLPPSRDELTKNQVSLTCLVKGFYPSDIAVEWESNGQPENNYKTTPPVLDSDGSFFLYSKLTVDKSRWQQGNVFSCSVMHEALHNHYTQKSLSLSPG
light: B3 light
activity rcs (human NPRA [2]): 30%
average rel logEC50 (human NPRA [2]): 0.1 log vs TPP-5661
rel. activity rcs (human NPRA [2]): 0.3 log vs TPP-5661
rel. logEC50 pcs 1 (human NPRA [2]): 0.3 log vs TPP-5661
rel. logEC50 pcs 2 (human NPRA [2]): -0.2 log vs TPP-5661
rel. logEC50 pcs 4 (human NPRA [2]): 0.1 log vs TPP-5661
rel. logEC50 pcs 5 (human NPRA [2]): 0.2 log vs TPP-5661

B8: TPP-9902 (antibody)
heavy: not shown
light: B3 light
EC50, fluorescence signal of rat NPR-A cGMP reporter CHO cell line (GCaMP6/CNGA2) (rat ANP receptor (NPR-A)): 2300 nM
EC50 on rNPRA reporter cells (rat ANP receptor (NPR-A)): > 1000 nM

B10: TPP-10847 (antibody, human IgG1, lambda)
heavy: not shown
light: B3 light
average rel logEC50 (human NPRA [2]): -0.5 log vs TPP-5661
rel. logEC50 pcs 5 (human NPRA [2]): 0 log vs TPP-5661
rel. logEC50 pcs 6 (human NPRA [2]): -0.9 log vs TPP-5661

B11: TPP-10290 (antibody)
heavy: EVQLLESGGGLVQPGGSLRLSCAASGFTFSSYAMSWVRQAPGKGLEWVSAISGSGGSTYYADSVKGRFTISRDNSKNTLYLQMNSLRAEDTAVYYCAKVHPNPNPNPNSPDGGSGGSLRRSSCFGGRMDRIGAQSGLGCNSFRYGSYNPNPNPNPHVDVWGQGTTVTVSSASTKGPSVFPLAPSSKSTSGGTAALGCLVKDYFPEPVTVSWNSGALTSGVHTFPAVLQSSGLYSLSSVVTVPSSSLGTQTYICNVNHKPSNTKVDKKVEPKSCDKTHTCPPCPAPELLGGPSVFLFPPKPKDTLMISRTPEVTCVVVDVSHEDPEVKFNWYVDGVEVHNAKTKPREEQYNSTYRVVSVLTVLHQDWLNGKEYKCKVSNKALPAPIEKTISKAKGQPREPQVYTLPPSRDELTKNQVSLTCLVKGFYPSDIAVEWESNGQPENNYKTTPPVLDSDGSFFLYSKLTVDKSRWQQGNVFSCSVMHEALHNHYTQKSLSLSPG
light: B3 light
activity rcs (human NPRA [1]): 84%
average rel logEC50 (human NPRA [1]): -0.5 log vs TPP-5661
rel. logEC50 pcs 2 (human NPRA [1]): -0.8 log vs TPP-5661
rel. logEC50 pcs 3 (human NPRA [1]): -0.1 log vs TPP-5661

B12: TPP-5661 (antibody)
heavy: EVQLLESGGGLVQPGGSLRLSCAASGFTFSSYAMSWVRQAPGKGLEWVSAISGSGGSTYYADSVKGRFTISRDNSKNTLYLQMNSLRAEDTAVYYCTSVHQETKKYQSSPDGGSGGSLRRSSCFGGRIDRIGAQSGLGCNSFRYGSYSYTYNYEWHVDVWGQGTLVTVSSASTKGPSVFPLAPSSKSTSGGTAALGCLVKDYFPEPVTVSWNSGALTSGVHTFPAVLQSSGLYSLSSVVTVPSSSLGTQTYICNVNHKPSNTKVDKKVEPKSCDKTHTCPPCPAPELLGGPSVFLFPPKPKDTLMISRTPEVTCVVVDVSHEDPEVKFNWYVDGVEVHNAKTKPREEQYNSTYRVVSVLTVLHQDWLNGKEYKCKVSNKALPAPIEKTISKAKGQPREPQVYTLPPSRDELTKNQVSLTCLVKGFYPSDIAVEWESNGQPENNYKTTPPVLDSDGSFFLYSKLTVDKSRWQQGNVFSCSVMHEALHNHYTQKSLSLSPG
light: B3 light
activity rcs (human NPRA [1]): 36%
average rel logEC50 (human NPRA [1]): 0 log vs TPP-5661
rel. activity rcs (human NPRA [1]): 0 log vs TPP-5661
rel. logEC50* pcs (human NPRA [1]): 0 log vs TPP-5661
rel. logEC50 ics (human NPRA [1]): 0 log vs TPP-5661
rel. logEC50 pcs 1 (human NPRA [1]): 0 log vs TPP-5661
rel. logEC50 pcs 2 (human NPRA [1]): 0 log vs TPP-5661
rel. logEC50 pcs 3 (human NPRA [1]): 0 log vs TPP-5661
rel. logEC50 pcs 4 (human NPRA [1]): 0 log vs TPP-5661
rel. logEC50 pcs 5 (human NPRA [1]): 0 log vs TPP-5661
rel. logEC50 pcs 6 (human NPRA [1]): 0 log vs TPP-5661
rel. logEC50 pcs 7 (human NPRA [1]): 0 log vs TPP-5661
rel. logEC50 pcs 8 (human NPRA [1]): 0 log vs TPP-5661
rel. logEC50 pcs 9 (human NPRA [1]): 0 log vs TPP-5661

B15: TPP-10845 (antibody, human IgG1, lambda)
heavy: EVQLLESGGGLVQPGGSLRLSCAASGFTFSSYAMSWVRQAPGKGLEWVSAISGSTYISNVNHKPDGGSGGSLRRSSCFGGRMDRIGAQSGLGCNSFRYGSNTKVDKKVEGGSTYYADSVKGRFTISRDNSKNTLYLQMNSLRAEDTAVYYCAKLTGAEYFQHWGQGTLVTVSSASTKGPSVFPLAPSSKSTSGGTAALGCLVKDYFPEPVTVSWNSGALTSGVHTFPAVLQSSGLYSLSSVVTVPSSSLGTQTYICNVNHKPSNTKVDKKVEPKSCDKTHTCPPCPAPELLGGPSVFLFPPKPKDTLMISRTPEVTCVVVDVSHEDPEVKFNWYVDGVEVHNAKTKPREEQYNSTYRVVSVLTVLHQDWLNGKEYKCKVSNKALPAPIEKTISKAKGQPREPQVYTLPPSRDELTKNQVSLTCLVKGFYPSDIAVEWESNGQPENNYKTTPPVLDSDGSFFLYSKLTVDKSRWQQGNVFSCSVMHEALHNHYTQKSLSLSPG
light: B3 light
activity rcs (human NPRA [2]): 67%
average rel logEC50 (human NPRA [2]): -0.6 log vs TPP-5661
rel. logEC50 pcs 5 (human NPRA [2]): -0.4 log vs TPP-5661
rel. logEC50 pcs 6 (human NPRA [2]): -0.8 log vs TPP-5661

B16: TPP-10274 (antibody)
heavy: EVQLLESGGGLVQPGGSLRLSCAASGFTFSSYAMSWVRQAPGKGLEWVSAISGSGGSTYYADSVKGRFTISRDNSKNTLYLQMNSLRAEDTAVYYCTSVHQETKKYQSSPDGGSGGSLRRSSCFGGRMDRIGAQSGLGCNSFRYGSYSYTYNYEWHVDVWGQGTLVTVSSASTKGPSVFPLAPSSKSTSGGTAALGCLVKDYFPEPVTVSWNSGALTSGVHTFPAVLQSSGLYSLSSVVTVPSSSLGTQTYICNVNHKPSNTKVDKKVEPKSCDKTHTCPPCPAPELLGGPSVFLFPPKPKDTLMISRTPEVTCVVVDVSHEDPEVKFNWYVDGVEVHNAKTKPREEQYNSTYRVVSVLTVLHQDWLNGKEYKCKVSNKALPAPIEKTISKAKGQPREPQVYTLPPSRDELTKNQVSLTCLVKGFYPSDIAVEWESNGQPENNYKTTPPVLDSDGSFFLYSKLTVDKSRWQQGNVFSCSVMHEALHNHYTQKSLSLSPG
light: B3 light
activity rcs (human NPRA [2]): 71%
average rel logEC50 (human NPRA [2]): -0.1 log vs TPP-5661
rel. logEC50 pcs 2 (human NPRA [2]): -0.3 log vs TPP-5661
rel. logEC50 pcs 3 (human NPRA [2]): -0.2 log vs TPP-5661
rel. logEC50 pcs 7 (human NPRA [2]): 0 log vs TPP-5661

B17: TPP-10355 (antibody, human IgG1, lambda)
heavy: not shown
light: QSVLTQPPSVSGAPGQRVTISCTGSSSNIGAGYDVHWYQQLPGTAPKLLIYGNSNRPSGVPDRFSGSKSGTSASLAITGLQAEDEADYYCAAWNPNPNPNPNPNGGSGGSLRRSSCFGGRMDRIGAQSGLGCNSFRYGSNPNPNPNPNPNVFGSGTKVTVLGQPKAAPSVTLFPPSSEELQANKATLVCLISDFYPGAVTVAWKADSSPVKAGVETTTPSKQSNNKYAASSYLSLTPEQWKSHRSYSCQVTHEGSTVEKTVAPTECS
activity rcs (human NPRA [1]): 94%
average rel logEC50 (human NPRA [1]): -0.2 log vs TPP-5661
rel. activity rcs (human NPRA [1]): 0.1 log vs TPP-5661
rel. logEC50 pcs 2 (human NPRA [1]): -0.6 log vs TPP-5661
rel. logEC50 pcs 3 (human NPRA [1]): 0.2 log vs TPP-5661
rel. logEC50 pcs 4 (human NPRA [1]): -0.3 log vs TPP-5661

More lines, now with the values ahead:

EC50, fluorescence signal of rat NPR-A cGMP reporter CHO cell line (GCaMP6/CNGA2) (rat ANP receptor (NPR-A)): 1200 nM
EC50 on rNPRA reporter cells (rat ANP receptor (NPR-A)): > 1000 nM
B2: TPP-11156 (antibody, human IgG1, lambda)
heavy: not shown
light: B3 light

average rel logEC50 (human NPRA [2]): -0.7 log vs TPP-5661
rel. logEC50* pcs (human NPRA [2]): -0.6 log vs TPP-5661 and -0.8 log vs TPP-5661
B7: TPP-13061 (antibody, human IgG1, lambda)
heavy: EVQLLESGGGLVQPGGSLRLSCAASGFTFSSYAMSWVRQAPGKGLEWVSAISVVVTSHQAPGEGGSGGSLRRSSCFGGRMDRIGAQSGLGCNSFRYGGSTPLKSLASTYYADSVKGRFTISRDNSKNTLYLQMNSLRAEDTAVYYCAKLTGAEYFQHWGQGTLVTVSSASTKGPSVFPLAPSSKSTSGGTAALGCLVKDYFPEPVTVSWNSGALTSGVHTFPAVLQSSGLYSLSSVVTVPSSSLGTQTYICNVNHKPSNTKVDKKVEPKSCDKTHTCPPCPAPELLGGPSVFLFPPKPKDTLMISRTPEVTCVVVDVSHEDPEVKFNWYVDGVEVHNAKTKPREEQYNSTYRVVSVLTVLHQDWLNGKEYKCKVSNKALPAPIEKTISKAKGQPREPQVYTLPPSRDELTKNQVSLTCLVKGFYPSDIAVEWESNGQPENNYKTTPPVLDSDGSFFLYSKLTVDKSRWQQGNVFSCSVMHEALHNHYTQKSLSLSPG
light: B3 light

average rel logEC50 (human NPRA [2]): -0.8 log vs TPP-5661
rel. logEC50* pcs (human NPRA [2]): -0.7 log vs TPP-5661 and -0.8 log vs TPP-5661
B9: TPP-13054 (antibody, human IgG1, lambda)
heavy: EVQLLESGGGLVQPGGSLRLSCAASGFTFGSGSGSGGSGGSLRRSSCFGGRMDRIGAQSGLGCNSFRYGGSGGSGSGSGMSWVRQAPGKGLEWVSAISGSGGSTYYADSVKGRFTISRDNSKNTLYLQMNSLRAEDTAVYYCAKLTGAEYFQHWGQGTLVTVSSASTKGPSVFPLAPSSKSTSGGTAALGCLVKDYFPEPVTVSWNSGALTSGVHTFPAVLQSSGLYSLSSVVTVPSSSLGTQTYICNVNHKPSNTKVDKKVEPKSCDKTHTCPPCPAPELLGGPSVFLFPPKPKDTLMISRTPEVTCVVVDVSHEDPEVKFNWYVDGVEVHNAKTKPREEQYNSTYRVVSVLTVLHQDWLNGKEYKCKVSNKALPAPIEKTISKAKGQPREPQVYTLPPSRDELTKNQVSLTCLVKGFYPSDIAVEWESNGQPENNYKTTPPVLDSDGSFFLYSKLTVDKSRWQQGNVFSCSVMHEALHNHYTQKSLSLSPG
light: B3 light

EC50, fluorescence signal of rat NPR-A cGMP reporter CHO cell line (GCaMP6/CNGA2) (rat ANP receptor (NPR-A)): 180 nM
B13: TPP-10992 (antibody, human IgG4 S228P, lambda)
heavy: not shown
light: B3 light

average rel logEC50 (human NPRA [1]): -0.3 log vs TPP-5661
rel. logEC50 pcs 9 (human NPRA [1]): -0.3 log vs TPP-5661
B14: TPP-13230 (antibody)
heavy: not shown
light: B3 light
